{
  "source": "paper PMC9529352",
  "binders": {"B1": {"name": "SL8 RNA (structured_RNA)", "RNA": "GAUGGCACUUGUGGCUUAGUAGAAGUUGAAAAAGGCGUUUUGCCUCAACUUGAACAGCCCUAUGUGUUCAUC"}},
  "biological_target": "N protein WT (SARS-CoV-2, UniProt P0DTC9 1-419)",
  "assay": "mass photometry",
  "details": "protein: recombinant; tags: 6xHis-SUMO tag cleaved by Ulp1; chain copies: 12; hairpin",
  "data": [
    {"binder": "B1", "values": [
      {"measurement": "binding result", "value": "binds"}
    ]}
  ]
}
